Data as given in patent US20230270832A1, “MAGEA1 IMMUNOGENIC PEPTIDES, BINDING PROTEINS RECOGNIZING MAGEA1 IMMUNOGENIC PEPTIDES, AND USES THEREOF” (TScan Therapeutics, Inc., priority 2021, published 2023).

Assays:
[1] = tested on: primary cells from healthy HLA-C*07:02+ human donors; assay: Co-culture with normal primary cells, IFNγ secretion; type: cell-based; conditions: pan T cells, non-pulsed primary cells vs MAGE-A1 peptide pulsed
Excerpt: Primary normal cells from C*07:02+ donors that were expanded, confirmed to maintain differentiation states, and frozen were obtained (Lonza). Tested samples include: Human umbilical vein endothelial cells (HUVEC (CC-2517)), lung small airway epithelial cells (SAEC (CC-2547)) and lung bronchial-tracheal epithelial cells (NHBE (CC-2540)).
Prior to co-culture assays, primary normal cells were thawed, washed, resuspended in RPMI media supplemented with IL-2, IL-7, and IL-15 and seeded in 96-well flat-bottom culture plates at a density of 200,000 cells/well and allowed to rest for 4 hours. Cells were pulsed with MAGE-A1 peptide for 1-2 hours or left un-pulsed in their respective media. HN-32-41 or untransduced (NTD) T cells were then added at a density of 100,000 cells/well in complete T cell media. 24 hours post co-culture, supernatants were collected and frozen at −80° C.). Supernatants were thawed and analyzed for IFN-γ levels by loading on a Simple Plex Human IFN-gamma (3rd Gen) Cartridge (ProteinSimple, San Jose, Calif.) using the Ella™ instrument.
For flow cytometry analysis (Cytoflex S™ instrument, Beckman Coulter), cell pellets were washed with FACS buffer (PBS, 0.5% BSA, 2 mM EDTA) and stained for activation-induced markers, including PE-conjugated anti-CD137 (Miltenyi), AF647-conjugated anti-CD69 (Biolegend), and BV421-conjugated anti-CD8 (BioLegend).

LAMB4-IR peptide = assay: Peptide validation of off-target with dilutions of cross-reactive peptide; type: cell-based, human; conditions: LAMB4-IR peptide below 2,000 ng/mL
Description: MHC-Flurry (O'Donnell et al. (2020) Cell Systems 42-48.e7) was used to predict peptides from LAMB4-IR with high-affinity binding to C*07:02. Predicted high-binding peptides were synthesized (GenScript). Monoallelic C*07:02 HEK293T reporter cells were pulsed with serial dilutions 0-20,000 ng/ml of the top peptide candidate for 1 hour and then co-cultured with TCR-transduced T cells (HN-32-41) at an E:T ratio of ˜2:1. After 4 hours, the cultures were harvested by pipetting and fluorescence of the reporter was detected using a CytoFLE.X™ S instrument (Beckman Coulter).

[2] = tested on: cancer cells that express MAGEA1; assay: T cell recognition assay on cancer cell lines; type: cell-based, human; conditions: IFNγ release, CD137/CD69 double-positive staining
Description: To detect reactivity to cancer cell lines, wild-type cancer cell lines were seeded in a 96-well flat bottom plate and rested overnight at 37° C. in 5% CO2. On the following day, T cells were thawed, washed in complete RPMI-1640 medium, and added to the wells for an effector to target (E:T) ratio of 1:1 for INFγ measurement or 1:4 for flow cytometry analysis of activation-induced markers. The co-culture was incubated overnight. Cells were then harvested by pipetting, transferred to V-bottom 96-well plates, and centrifuged at 2,000 rpm for 2 minutes. The supernatant was collected for IFNγ measurement using a human IFNγ 3rd generation single-plex assay (Protein Simple). For flow cytometry analysis (Cytoflex S™ instrument, Beckman Coulter), cell pellets were washed with FACS buffer (PBS, 0.5% BSA, 2 mM EDTA) and stained for activation-induced markers, including PE-conjugated anti-CD137 (Miltenyi), AF647-conjugated anti-CD69 (Biolegend), and BV421-conjugated anti-CD8 (BioLegend).
(§1) Cancer cell lines were purchased from ATCC (Manassas, Vα.) and HEK293T cells were originally from Takara Bio (Shiga, Japan). All media were supplemented with […], except U266B1 which required 15% FBS, and 1% penicillin and incubated at 37° C. in 5% CO2. A101D (high MAGE-A1 expresing cells; TPM: 359), A2058 (medium MAGE-A1 expresing cells; TPM: 128), HS294T, and HEK293T cells were maintained in complete DMEM. SK-MEL-5 was cultured in complete EMEM, whereas U266B1, NCIH1437 and 786-0 required complete RPMI. Untransduced cancer cells were maintained in preparation for the T cell recognition assay, and 10^6 cells of each cell line were introduced with Incucyte® NucLight™ Red lentivirus reagent (Sartorius, Gottingen, Germany) Positively-labeled cells were selected using 1.5 ug/mL of puromycin over 72 hours.

[3] = biological target: T1, epitope from MAGEA1 presented by HLA C*07:02 (Homo sapiens, UniProt P10321+P43355, DEL298-309); assay: Identification of MAGEA1-reactive TCRs from pool of TCR-transduced T cells (CD137/CD69 sorting, TCR sequencing); type: cell-based; conditions: target cells transduced with MAGEA1 90-mer
T1 construct: an individual 90-amino acid fragments representing the top-scoring MAGEA1 tile from the screen; expressed in transfected cells; host or cells: MHC monoallelic C*07:02 HEK293T cells, lentivirally transduced with the MAGEA1 90-mer
Excerpt: Ten orphan TCRs from this patient were pooled together to identify their cognate antigens using the genome-wide TargetScan technology. This screen identified MAGEA1 as a novel target. […] Note that the term “TCR32-39” may also be known as “TCR39” and the term “TCR32-41” may also be known as “TCR41”.
To identify the corresponding TCR from the pool of TCR-transduced T cells, Ml-IC monoallelic C*07:02 HEK293T cells engineered to express the MAGEA1 90mer were co-cultured with the pool of T cells at an E:T ratio of 1:1 for 16-24 hours. The T cells were mixed, collected by pipetting, and labeled with a CD137 microbead kit (Miltenyi) following the manufacturer's instructions. In brief, T cells were first stained with PE-labeled anti-CD137 and AF647-labeled anti-CD69 (BioLegend), washed, and then labeled with anti-PE microbeads. Labeled cells were enriched with an autoMACS® Pro separator (Miltenyi) and CD137 and CD69 double-positive cells were sorted on a MoFlo® Astrios™ Cell Sorter (Beckman Coulter). Genomic DNA was extracted from the sorted cells and the TCR expression cassette was PCR amplified and prepared for next generation sequencing (NGS).

[4] = tested on: cell lines with low to zero MAGEA1 expression; type: cell-based, human
Description: as §1
Cancer cells selected for Incucyte® NucLight™ analysis were seeded into 96-well flat bottom plates (Corning, Flintshire, UK) at 10^4 cells. On the same day, T cells were thawed, washed in complete RPMI-1640, and allowed to rest overnight in medium with 50 U/mL IL-2 (PeproTech), 5 ng/mL IL-7, and 5 ng/mL IL-15 (R&D Systems). All cells were rested overnight at 37° C. in 5% CO2. […] Imaging utilized a 4x objective lens and data were analyzed using the Incucyte® Basic Software. […]

B1: TCR 32-41: T cell receptor recognizing MAGEA1 epitope presented by HLA-C*07:02; alpha TRAV27/TRAJ52, beta TRBV12-4/TRBJ1-4; wild type, HM and MGTM sequences listed (protein)
TCR alpha: QLLEQSPQFLSIQEGENLTVYCNSSSVFSSLQWYRQEPGEGPVLLVTVVTGGEVKKLKRLTFQFGDARKDSSLHITAAQPGDTGLYLCAGDESISYGKLTFGQGTILTVHPNIQNPEPAVYQLKDPRSQDSTLCLFTDFDSQINVPKTMESGTFITDKCVLDMKAMDSKSNGAIAWSNQTSFTCQDIFKETNATYPSSDVPCDATLTEKSFETDMNLNFQNLLVMVLRILLLKVAGFNLLMTLRLWSS
TCR beta: DAGVIQSPRHEVTEMGQEVTLRCKPISGHDYLFWYRQTMMRGLELLIYFNNNVPIDDSGMPEDRFSAKMPNASFSTLKIQPSEPRDSAVYFCASSFLGWNEKLFFGSGTQLSVLEDLRNVTPPKVSLFEPSKAEIANKQKATLVCLARGFFPDHVELSWWVNGKEVHSGVCTDPQAYKESNYSYCLSSRLRVSATFWHNPRNHFRCQVQFHGLSEEDKWPEGSPKPVTQNISAEAWGRADCGITSASYQQGVLSATILYEILLGKATLYAVLVSTLVVMAMVKRKNS
- reactivity to normal human cells (IFNγ secretion in culture supernatants) [1]: does not show reactivity to normal human cells
- reactivity to normal human cells (IFNγ secretion in culture supernatants) ([1]; listed as TCR41): did not react with healthy human primary cells
- reactivity to cross-reactive off-target peptide (LAMB4-IR peptide): poor reactivity
- recognition of cancer cells [2]: recognize cancer cells that express MAGEA1
- recognition of cancer cells ([2]; listed as TCR 41): recognize
- recognition of MAGEA1 epitope / identification as MAGEA1-reactive TCR ([3]; listed as HN-32-41): recognizing the same novel epitope from MAGEA1 presented by HLA C*07:02
- recognition of MAGEA1 epitope / identification as MAGEA1-reactive TCR ([3]; listed as TCR 41): hits
- cytotoxic activity (killing) on cell lines with low to zero MAGEA1 [4]: does not kill cell lines with low to zero MAGEA1 expression
